# Experimental data reported in publication PMC11035769.
# Molecular target: CD16a-His (human) (UniProt P08637)
# Test: BLI; CD16a-His (250 ng/mL) immobilised on HIS1K biosensors; analytes at 3200 - 50 nM or 400 - 6.25 nM; 1X kinetics buffer (PBS pH 7.4, 0.02% Tween-20, 0.1% bovine serum albumin); 300 s association, 600 s dissociation; 1:1 fitting model; geometric means
# Sequence of UniProt P08637 (P08637 17-208): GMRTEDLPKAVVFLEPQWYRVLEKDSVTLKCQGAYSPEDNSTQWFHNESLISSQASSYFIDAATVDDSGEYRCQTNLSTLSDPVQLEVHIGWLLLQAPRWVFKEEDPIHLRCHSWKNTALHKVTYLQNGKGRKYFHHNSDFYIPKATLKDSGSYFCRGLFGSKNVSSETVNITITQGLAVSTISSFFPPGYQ
substance,measurement,value
Immune Globulin Intravenous (Human) (antibody),Kd,244 nM
same,koff,0.0402 s⁻¹
same,kon,165000 M⁻¹ s⁻¹
